# Experimental data: US20240317834A1, “COMPOSITIONS AND METHODS FOR NEUROLOGICAL DISEASES” (CODA BIOTHERAPEUTICS, INC., priority 2020, published 2024)
# Where a chain is given by its changes, count along the chain named. Numbers in names are those of the source.
# B1: CODA377: engineered chimeric LGIC receptor, S172D in SEQ ID NO: 33 (protein)
# chain: MRCSPGGVWLALAASLLHVSLQGEFQRKLYKELVKNYNPLERPVANDSQPLTVYFSLSLLQIMDVDEKNQVLTTNIWLQMSWTDHYLQWNVSEYPGVKTVRFPDGQIWKPDILLYNSADERFDATFHTNVLVNSSGHCQYLPPGIFKSSCPMDLKNFPMDVQTCKLKFGSWDYGGWSLDLQMQEADISGYIPNGEWDLVGIPGKRSERFYECCKEPYPDVTFTVTMRRRMGYYLIQMYIPSLLIVILSWISFWINMDAAPARVGLGITTVLTMTTQSSGSRASLPKVSYVKAIDIWMAVCLLFVFSALLEYAAVNFVSRQHKELLRFRRKRRHHKSPMLNLFQEDEAGEGRFNFSAYGMGPACLQAKDGISVKGANNSNTTNPPPAPSKSPEEMRKLFIQRAKKIDKISRIGFPMAFLIFNMFYWIIYKIVRREDVHNQ
# modifications: synthetic sequence of chimeric LGIC
# B2: CODA405: engineered chimeric LGIC receptor, Y210V in SEQ ID NO: 33 (protein)
# chain: B1 chain with D172S, Y210V
# modifications: synthetic sequence of chimeric LGIC
# B3: CODA407: engineered chimeric LGIC receptor, Y210F in SEQ ID NO: 33 (protein)
# chain: B1 chain with D172S, Y210F
# modifications: synthetic sequence of chimeric LGIC
# Tested on: Lenti-X 293T cells
# Test: YFP fluorescence quenching anion reporter plate reader assay of engineered receptors stimulated with acetylcholine or a non-native ligand
# Assay type: cell-based
# Conditions: for percent quench of YFP fluorescence, 10 uM ach: acetylcholine 10 uM; for percent quench of YFP fluorescence, 100 uM ach: acetylcholine 100 uM; for percent quench of YFP fluorescence, 1 mM ach: acetylcholine 1 mM; for percent quench of YFP fluorescence, 3 mM ach: acetylcholine 3 mM
# Method in brief: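 YFP quench was followed for about 1 min 43 s after ligand delivered in iodide-based ECS, pH 7.2. Values are end-of-read fluorescence (last 10 s) divided by the pre-ligand baseline (15 s). Cells were LX293T, transfected with receptor DNA a day before the assay.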
molecule,measurement,setting,value
B1,YFP fluorescence quenching using CNL001,"1 nM CNL001, first column",67.544%
same,YFP fluorescence quenching using CNL001,"1 nM CNL001, second column",74.209%
same,YFP fluorescence quenching using TC-5619/Bradanicline,1 nM brd,0.77%
same,YFP fluorescence quenching using TC-5619/Bradanicline,3 nM brd,−4.59%
same,YFP fluorescence quenching using Varenicline,"3 nM var, first column",−3.433
same,YFP fluorescence quenching using Varenicline,"3 nM var, second column",−5.737
same,YFP fluorescence quenching using CNL001,"10 nM CNL001, first column",74.346%
same,YFP fluorescence quenching using CNL001,"10 nM CNL001, second column",75.816%
same,YFP fluorescence quenching using TC-5619/Bradanicline,10 nM brd,0.06%
same,YFP fluorescence quenching using TC-5619/Bradanicline,30 nM brd,−10.48%
same,YFP fluorescence quenching using Facinicline,30 nM fac,4.93
same,YFP fluorescence quenching using Varenicline,"30 nM var, first column",−5.319
same,YFP fluorescence quenching using Varenicline,"30 nM var, second column",−6.175
same,YFP fluorescence quenching using CNL001,"50 nM CNL001, first column",77.068%
same,YFP fluorescence quenching using CNL001,"50 nM CNL001, second column",76.99%
same,YFP fluorescence quenching using ABT-126,50 nM abt,−1.53%
same,YFP fluorescence quenching using CNL001,"100 nM CNL001, first column",79.352%
same,YFP fluorescence quenching using CNL001,"100 nM CNL001, second column",77.865%
same,YFP fluorescence quenching using CNL002,100 nM CNL002,59.35%
same,YFP fluorescence quenching using ABT-126,100 nM abt,18.18%
same,YFP fluorescence quenching using AZD-0328,100 nM azd0328,65.04%
same,YFP fluorescence quenching using TC-5619/Bradanicline,100 nM brd,0.25%
same,YFP fluorescence quenching using ABT-126,300 nM abt,59.15%
same,YFP fluorescence quenching using AZD-0328,300 nM azd0328,81.73%
same,YFP fluorescence quenching using TC-5619/Bradanicline,300 nM brd,−10.61%
same,YFP fluorescence quenching using Facinicline,300 nM fac,84.13
same,YFP fluorescence quenching using Varenicline,"300 nM var, first column",−4.135
same,YFP fluorescence quenching using Varenicline,"300 nM var, second column",−8.614
same,YFP fluorescence quenching using Varenicline,"500 nM var, first column",−6.062
same,YFP fluorescence quenching using Varenicline,"500 nM var, second column",−6.125
same,YFP fluorescence quenching using CNL001,"1 uM CNL001, first column",80.272%
same,YFP fluorescence quenching using CNL001,"1 uM CNL001, second column",79.432%
same,YFP fluorescence quenching using CNL002,1 uM CNL002,79.26%
same,YFP fluorescence quenching using ABT-126,1 uM abt,72.28%
same,YFP fluorescence quenching using TC-5619/Bradanicline,1 uM brd,3.82%
same,YFP fluorescence quenching using TC-6987,1 uM tc6987,−9.74
same,YFP fluorescence quenching using Varenicline,"1 uM var, first column",−14.134
same,YFP fluorescence quenching using Varenicline,"1 uM var, second column",−15.373
same,YFP fluorescence quenching using TC-6987,3 uM tc6987,−14.04
same,YFP fluorescence quenching using TC-6987,5 uM tc6987,−0.95
same,YFP fluorescence quenching using Facinicline,10 uM fac,66.96
same,YFP fluorescence quenching using TC-6987,10 uM tc6987,−7.41
same,YFP fluorescence quenching using CNL002,30 uM CNL002,79.96%
same,YFP fluorescence quenching using AZD-0328,30 uM azd0328,82.3%
same,YFP fluorescence quenching using Facinicline,30 uM fac,85.29
same,YFP fluorescence quenching using TC-6987,30 uM tc6987,−16.12
same,YFP fluorescence quenching using TC-6987,50 uM tc6987,−12.79
same,YFP fluorescence quenching using TC-6987,100 uM tc6987,−11.77
same,YFP fluorescence quenching using TC-6987,300 uM tc6987,−19.68
same,YFP fluorescence quenching using TC-6987,500 uM tc6987,−17.02
same,"percent quench of YFP fluorescence, 30 nM TC-6683",TC-6683 30 nM,−20.23%
same,"percent quench of YFP fluorescence, 300 nM TC-6683",TC-6683 300 nM,−13.94%
same,"percent quench of YFP fluorescence, 3 uM TC-6683",TC-6683 3 uM,−14.17%
same,"percent quench of YFP fluorescence, 30 uM TC-6683",TC-6683 30 uM,1.86%
same,"percent quench of YFP fluorescence, 100 uM TC-6683",TC-6683 100 uM,43.61%
same,"percent quench of YFP fluorescence, 10 uM ach",,−3.19%
same,"percent quench of YFP fluorescence, 100 uM ach",,0.07%
same,"percent quench of YFP fluorescence, 1 mM ach",,71.7%
same,"percent quench of YFP fluorescence, 3 mM ach",,76.95%
B2,YFP fluorescence quenching using CNL001,"1 nM CNL001, first column",−16.246%
same,YFP fluorescence quenching using CNL001,"1 nM CNL001, second column",−4.217%
same,YFP fluorescence quenching using TC-5619/Bradanicline,3 nM brd,9.92%
same,YFP fluorescence quenching using Varenicline,"3 nM var, first column",7.317
same,YFP fluorescence quenching using Varenicline,"3 nM var, second column",7.643
same,YFP fluorescence quenching using CNL001,"10 nM CNL001, first column",−6.142%
same,YFP fluorescence quenching using CNL001,"10 nM CNL001, second column",−10.003%
same,YFP fluorescence quenching using TC-5619/Bradanicline,30 nM brd,4.37%
same,YFP fluorescence quenching using Facinicline,30 nM fac,−26.25
same,YFP fluorescence quenching using Varenicline,"30 nM var, first column",9.457
same,YFP fluorescence quenching using Varenicline,"30 nM var, second column",9.134
same,YFP fluorescence quenching using CNL001,"50 nM CNL001, first column",−11.054%
same,YFP fluorescence quenching using CNL001,"50 nM CNL001, second column",−10.06%
same,YFP fluorescence quenching using ABT-126,50 nM abt,−2.9%
same,YFP fluorescence quenching using CNL001,"100 nM CNL001, first column",−3.832%
same,YFP fluorescence quenching using CNL001,"100 nM CNL001, second column",−3.784%
same,YFP fluorescence quenching using CNL002,100 nM CNL002,−14.3%
same,YFP fluorescence quenching using ABT-126,100 nM abt,−2.06%
same,YFP fluorescence quenching using AZD-0328,100 nM azd0328,−8.13%
same,YFP fluorescence quenching using ABT-126,300 nM abt,−0.19%
same,YFP fluorescence quenching using AZD-0328,300 nM azd0328,−3.35%
same,YFP fluorescence quenching using TC-5619/Bradanicline,300 nM brd,59%
same,YFP fluorescence quenching using Facinicline,300 nM fac,−23.52
same,YFP fluorescence quenching using Varenicline,"300 nM var, first column",15.503
same,YFP fluorescence quenching using Varenicline,"300 nM var, second column",11.954
same,YFP fluorescence quenching using Varenicline,"500 nM var, first column",13.427
same,YFP fluorescence quenching using Varenicline,"500 nM var, second column",10.784
same,YFP fluorescence quenching using CNL001,"1 uM CNL001, first column",1.129%
same,YFP fluorescence quenching using CNL001,"1 uM CNL001, second column",7.1%
same,YFP fluorescence quenching using CNL002,1 uM CNL002,−7.56%
same,YFP fluorescence quenching using ABT-126,1 uM abt,−3.64%
same,YFP fluorescence quenching using TC-6987,1 uM tc6987,−22.63
same,YFP fluorescence quenching using Varenicline,"1 uM var, first column",9.032
same,YFP fluorescence quenching using Varenicline,"1 uM var, second column",11.591
same,YFP fluorescence quenching using TC-6987,10 uM tc6987,−23.03
same,YFP fluorescence quenching using CNL002,30 uM CNL002,−2.02%
same,YFP fluorescence quenching using AZD-0328,30 uM azd0328,−2.86%
same,YFP fluorescence quenching using Facinicline,30 uM fac,0.83
same,YFP fluorescence quenching using TC-6987,500 uM tc6987,−40.88
same,"percent quench of YFP fluorescence, 10 uM ach",,−6.31%
same,"percent quench of YFP fluorescence, 100 uM ach",,−14.48%
same,"percent quench of YFP fluorescence, 1 mM ach",,−2.82%
same,"percent quench of YFP fluorescence, 3 mM ach",,1.06%
B3,YFP fluorescence quenching using CNL001,"1 nM CNL001, first column",−10.845%
same,YFP fluorescence quenching using CNL001,"1 nM CNL001, second column",−2.629%
same,YFP fluorescence quenching using TC-5619/Bradanicline,3 nM brd,−0.53%
same,YFP fluorescence quenching using Varenicline,"3 nM var, first column",2.441
same,YFP fluorescence quenching using Varenicline,"3 nM var, second column",7.326
same,YFP fluorescence quenching using CNL001,"10 nM CNL001, first column",4.66%
same,YFP fluorescence quenching using CNL001,"10 nM CNL001, second column",12.246%
same,YFP fluorescence quenching using TC-5619/Bradanicline,30 nM brd,8.71%
same,YFP fluorescence quenching using Facinicline,30 nM fac,−21.94
same,YFP fluorescence quenching using Varenicline,"30 nM var, first column",1.275
same,YFP fluorescence quenching using Varenicline,"30 nM var, second column",12.96
same,YFP fluorescence quenching using CNL001,"50 nM CNL001, first column",29.307%
same,YFP fluorescence quenching using CNL001,"50 nM CNL001, second column",41.78%
same,YFP fluorescence quenching using ABT-126,50 nM abt,−13.07%
same,YFP fluorescence quenching using CNL001,"100 nM CNL001, first column",50.654%
same,YFP fluorescence quenching using CNL001,"100 nM CNL001, second column",62.054%
same,YFP fluorescence quenching using CNL002,100 nM CNL002,−12.47%
same,YFP fluorescence quenching using ABT-126,100 nM abt,0.1%
same,YFP fluorescence quenching using AZD-0328,100 nM azd0328,0.85%
same,YFP fluorescence quenching using ABT-126,300 nM abt,5.97%
same,YFP fluorescence quenching using AZD-0328,300 nM azd0328,1.25%
same,YFP fluorescence quenching using TC-5619/Bradanicline,300 nM brd,76.26%
same,YFP fluorescence quenching using Facinicline,300 nM fac,−22.46
same,YFP fluorescence quenching using Varenicline,"300 nM var, first column",13.119
same,YFP fluorescence quenching using Varenicline,"300 nM var, second column",2.355
same,YFP fluorescence quenching using Varenicline,"500 nM var, first column",11.539
same,YFP fluorescence quenching using Varenicline,"500 nM var, second column",6.571
same,YFP fluorescence quenching using CNL001,"1 uM CNL001, first column",81.742%
same,YFP fluorescence quenching using CNL001,"1 uM CNL001, second column",81.304%
same,YFP fluorescence quenching using CNL002,1 uM CNL002,−3.93%
same,YFP fluorescence quenching using ABT-126,1 uM abt,50.23%
same,YFP fluorescence quenching using TC-6987,1 uM tc6987,−15.22
same,YFP fluorescence quenching using Varenicline,"1 uM var, first column",8.397
same,YFP fluorescence quenching using Varenicline,"1 uM var, second column",7.309
same,YFP fluorescence quenching using TC-6987,10 uM tc6987,−19.89
same,YFP fluorescence quenching using CNL002,30 uM CNL002,80.97%
same,YFP fluorescence quenching using AZD-0328,30 uM azd0328,82.08%
same,YFP fluorescence quenching using Facinicline,30 uM fac,82.63
same,YFP fluorescence quenching using TC-6987,500 uM tc6987,−33.32
same,"percent quench of YFP fluorescence, 10 uM ach",,−3.75%
same,"percent quench of YFP fluorescence, 100 uM ach",,−1.6%
same,"percent quench of YFP fluorescence, 1 mM ach",,71.65%
same,"percent quench of YFP fluorescence, 3 mM ach",,79.09%
